# Test results from patent US7125850B2, “Methods of identifying inhibitors of GADD45 polypeptide activity, and inhibitors of such activity” (The United States of America as represented by the …, priority 1999, dated 2006).
# B1: GADD45 Δ72–166: truncated rGADD45 containing the first 71 amino acid residues (protein, listed as Homo sapiens)
# chain: MTLEEFSAGEQKTERMDKVGDALEEVLSKALSQRTITVGVYEAAKLLNVDPDNVVLCLLAADEDDDRDVAL
# B2: rGADD45: full length recombinant human GADD45 polypeptide (SEQ ID NO:2), bacterially expressed, histidine tag removed (protein, listed as Rattus norvegicus)
# chain: MTLEEFSAAEQKIERMDTVGDALEEVLSKARSQRTITVGVYEAAKLLNVDPDNVVLCLLAADEDDDRDVALQIHFTLIRAFCCENDINILRVSNPGRLAELLLLENDKSPAESGGLAQTPDLHCVLVTNPHSSQWKDPALSQLICFCRESRYMDQWVPVINLPER
# modifications: rat growth arrest and DNA-damage-inducible protein (rGADD45)
# B3: GADD45 Δ125–166: truncated rGADD45 containing the first 124 amino acid residues (protein, listed as Homo sapiens)
# chain: MTLEEFSAGEQKTERMDKVGDALEEVLSKALSQRTITVGVYEAAKLLNVDPDNVVLCLLAADEDDDRDVALQIHFTLIQAFCCENDINILRVSNPGRLAELLLLETDAGPAASEGAEQPPDLHC
# B4: NAP-1: negative control protein of similar size and charge as GADD45 (protein, UniProt P55209 2-388, looked up)
# Nucleosome assembly protein …: ADIDNKEQSELDQDLDDVEEVEEEETGEETKLKARQLTVQMMQNPQILAALQERLDGLVETPTGYIESLPRVVKRRVNALKNLQVKCAQIEAKFYEEVHDLERKYAVLYQPLFDKRFEIINAIYEPTEEECEWKPDEEDEISEELKEKAKIEDEKKDEEKEDPKGIPEFWLTVFKNVDLLSDMVQEHDEPILKHLKDIKVKFSDAGQPMSFVLEFHFEPNEYFTNEVLTKTYRMRSEPDDSDPFSFDGPEIMGCTGCQIDWKKGKNVTLKTIKKKQKHKGRGTVRTVTKTVSNDSFFNFFAPPEVPESGDLDDDAEAILAADFEIGHFLRERIIPRSVLYFTGEAIEDDDDDYDEEGEEADEEGEEEGDEENDPDYDPKKDQNPAEC
# Key:
# [1] = molecular target: T1, cellular Cdc2 (Homo sapiens, UniProt P06493); assay: GST pull-down from RKO cell lysate, immunoblot for Cdc2; format: binding; conditions: 100 ng protein, 1 mg RKO cellular protein
# T1 construct: GST-GADD45 fusion protein were incubated with one mg of RKO cellular protein; endogenous in cells; host or cells: RKO (human colon carcinoma)
# T1 sequence (P06493 whole entry, the tested form may be a part): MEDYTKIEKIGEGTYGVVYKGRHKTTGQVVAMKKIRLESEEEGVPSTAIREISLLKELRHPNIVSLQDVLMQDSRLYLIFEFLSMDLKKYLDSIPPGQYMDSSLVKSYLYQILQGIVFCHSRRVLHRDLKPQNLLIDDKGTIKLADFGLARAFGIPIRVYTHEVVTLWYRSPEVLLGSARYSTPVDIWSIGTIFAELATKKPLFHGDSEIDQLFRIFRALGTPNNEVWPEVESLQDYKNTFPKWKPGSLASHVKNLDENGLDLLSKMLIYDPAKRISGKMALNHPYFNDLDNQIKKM
# Text: For these experiments, a recombinant glutathione-S-transferase (GST)/GADD45 fusion protein was constructed. The GADD45 insert was PCR amplified from pHul45B2 using the following primers: (SEQ ID NO:3) 5′[…] 3′ and (SEQ ID NO:4) 5′[…] 3′. Products were cloned into a pcrII vector using the TA cloning kit (Invitrogen, San Diego, Calif.). A representative clone was confirmed by sequencing. The selected insert was removed by XhoI and NotI digestion, gel purified using the Wizard DNA Purification Kit (Promega, Madison, Wis.), and ligated into the XhoI/ NotI digested pGEX4T vector (Pharmacia, Piscataway, N.J.). GST-GADD45 fusion protein induction was prepared from freshly transformed BL21 bacterial cells (Novagen). 150 ml of overnight culture was diluted into 1L of LB with ampicillin and grown at 37° C. to late growth phase (OD600 was approximately 0.8). […]
# To detect binding of cellular Cdc2 to GST-tagged GADD45, 100 ng of GST or GST-GADD45 fusion protein were incubated with one mg of RKO cellular protein for 4 hr at […]. […] Antibody was detected by a chemiluminescence system in accordance with the instructions of the manufacturer (Amersham, Buckinghamshire, England)
# GST-GADD45 fusion protein or GST alone, which were linked to Sepharose beads, were incubated with cellular lysates, isolated, and analyzed by immunoblotting, as described above.
# [2] = molecular target: T2, Cdc2/Cyclin B1 complex (Homo sapiens, UniProt P06493); assay: Histone H1 kinase assay with purified Cdc2-Cyclin B1 complexes; format: biochemical; parameters: purchased Upstate Biotechnology, Lake Placid, N.Y; conditions: for inhibition of histone H1 kinase activity of purified Cdc2/Cyclin B1 complex: 100 ng complex, varying amounts of protein up to 500 ng
# Procedure: In one experiment, 100 ng purified Cdc2-cyclin B1 complexes (Upstate Biotechnology, Lake Placid, N.Y.) were incubated with varying amounts of full length rGADD45 or negative control (NAP 1, Tjandra (1998) Curr. Biol. 8:991–1000; Fujii-Nakata (1992) J. Biol. Chem. 267:20980–20986) polypeptides. For full length rGADD45: 0, 10, 20, 50, 100, 200, and 500 ng were used. For the control (NAP1): 0, 100, 200, and 500 ng were used.
# Histone H1 kinase assays were then performed. Briefly, purified Cdc2-Cyclin B1 complexes (Upstate Biotechnology, Lake Placid, N.Y.) were incubated with the indicated amounts of rGADD45 or NAP1 proteins for 5 minutes. Histone H1 kinase assays were then performed in the presence of […] of histone H1 (Upstate, Lake Placid, N.Y.), 15 mM MgCl2, 7 mM β-glycerol phosphate, 1.5 mM EGTA, 0.25 mM sodium orthvanadate, 0.25 mM DTT and […] of [g-32P]ATP in 25 μl. After 15 min at 37° C., the reactions were mixed with an equal amount of standard 2× SDS protein denaturation loading buffer, size-separated on a 12% SDS-PAGE gel, and analyzed by autoradiography.
# rGADD45 proteins were prepared as described by Carrier (1994) supra. The rGADD45 proteins that were manufactured included, in addition to the full-length polypeptide, truncated forms containing the first 124 amino acid residues (designated “GADD45 Δ125–166”) or the first 71 amino acid residues (designated “GADD45 Δ72–166”) (see sequence and residue notation of SEQ ID NO:2).
# For the histone assays comparing the inhibitory activity of full length and truncated GADD45 constructs, instead of loading samples onto the gel for electrophoretic analysis, […] aliquots were spotted on phosphocellulose paper and then washed three times with 0.75% phosphoric acid. After an acetone rinse, the radioactivity was measured by scintillation counting. The results are the average of three separate experiments.
# Target sequence in this assay (P06493 whole entry, species assumed, one chain of several): as the sequence (P06493 whole entry, the tested form may be a part) above
# [3] = molecular target: T3, Cdc2/Cyclin B1 complexes (Homo sapiens, UniProt P06493); assay: ELISA binding of rGADD45 proteins to purified Cdc2/Cyclin B1; conditions: 40 ng protein; for binding to Cdc2/Cyclin B1 in ELISA: 100 ng complex coated
# T3 construct: purchased Upstate Biotechnology, Lake Placid, N.Y
# T3 sequence (P06493 whole entry, species assumed, one chain of several): as the sequence (P06493 whole entry, the tested form may be a part) above
# Procedure: Immulon II immunoabsorption plates (Dynatech) were coated with 100 ng of Cdc2/Cyclin B1 complexes (Upstate Biotechnology, Lake Placid, N.Y.) in PBS and incubated overnight at 4° C. After rinsing with PBST (PBS with 0.05% Tween-20) and blocking in 5% nonfat milk in PBST, 40 ng of either full length or truncated (both deletion constructs, as described above) rGADD45 protein were added. Following incubation for one hour at room temperature, the plates were washed and an anti-GADD45 antibody (Zymed, San Francisco, Calif.) was added at a 1:1000 dilution in PBST with 0.5% milk (PBSTM). After 1 hr at 25° C., the plates were washed, and HRP-anti-rabbit antibody diluted at 1:1000 in PBS™ was added before final washes and development using the 1-step TMB Solution (Pierce, Rockford, Ill.). Development was halted by the addition of 50 μl of 1M H2SO4, and optical density was measured using a platereader.
# [4] = molecular target: T2, Cdc2/Cyclin B1 complex; assay: Histone H1 kinase assay with Cdc2/cyclin B1 complex immunoprecipitated from RKO cell lysate; format: biochemical; parameters: One mg of cellular protein was immunoprecipitated with anti-Cyclin B1 antibody and protein A agarose beads; endogenous in cells; host or cells: RKO (human colon carcinoma); conditions: RKO lysate immunoprecipitate
# Procedure: A monoclonal antibody against cyclin B1 was next used to immunoprecipitate Cdc2/cyclin B1 complex from a lysate of human cells. Antibodies against human Cdc2, c-Myc, and NAP-1 were obtained from Santa Cruz Biotechnology, Santa Cruz, Calif. […] The human colon carcinoma line RKO was grown in modified Ham's F12 medium supplemented with 10% fetal bovine serum.
# For immunoprecipitation, exponentially growing RKO cells were lysed on ice for 30 min in lysis buffer consisting of 50 mM Tris-HCl (pH 7.5), 120 mM NaCl, 1% NP-40, […], […] and […] of phenylmethylsulfony fluoride. One mg of cellular protein was immunoprecipitated with anti-Cyclin B1 antibody and protein A agarose beads for 4 hr at 4° C. The immunoprecipitates were washed three times with lysis buffer and then loaded onto a SDS-PAGE gel for immunoblot analysis. The presence of Cdc2/Cyclin B1 was confirmed by immunoblotting.
# In contrast, rGADD45 had no effect on Cdk2/Cyclin E histone H1 kinase activity. […]
# Target sequence in this assay (P06493 whole entry, one chain of several): as the sequence (P06493 whole entry, the tested form may be a part) above
# [5] = molecular target: Cdk2/Cyclin E (Homo sapiens, UniProt P24941); assay: Cdk2/Cyclin E histone H1 kinase assay; format: biochemical; conditions: up to 3600 ng of full length rGADD45
# [6] = molecular target: T2, Cdc2/Cyclin B1 complex; assay: Wash off assay: dissociation of immunoprecipitated Cdc2/Cyclin B1 complexes; format: biochemical; parameters: One mg of cellular protein was immunoprecipitated with anti-Cyclin B1 antibody and protein A agarose beads; endogenous in cells; host or cells: RKO (human colon carcinoma); conditions: 0-500 ng protein, 15 min at 25 C
# Procedure: Since GADD45 inhibited Cdc2/Cyclin B1 activity, but only associated with Cdc2, the possibility was considered that GADD45 acts by dissociating this complex. To test this, anti-Cyclin B1 antibody was used to precipitate cellular Cdc2/cyclin B1 complexes (as above). A “wash off assay” was then carried out in the presence of GADD45. Briefly, RKO cellular protein was immunoprecipitated with anti-Cyclin B1 antibody. The immunoprecipitates were washed 3 times with lysis buffer and twice with 10 mM Tris-HCl (pH 7.5), 10 mM Mg Cl2. Samples were then suspended in […] of 10 mM Tris-HCl (pH 7.5), 10 mM MgCl2. Various amounts of rGADD45 (0, 50, 100, 200, 500 ng) or NAP1 (0, 200, 500 ng) was added to the Cdc2/Cyclin B1 immunocomplexes and incubated for 15 min at 25° C. Following incubation, immunoprecipitates were washed twice with lysis buffer, loaded onto SDS-PAGE gel for electrophoresis, and the membrane was immunoblotted with monoclonal Cdc2 antibody for the detection of Cdc2 protein. Prior to the final immunoprecipitation, an aliquot of the solution was analyzed by immunoblotting with an anti-Cyclin B1 antibody to confirm uniform loading. […] To confirm uniform levels of Cyclin B1, the amount of Cyclin B1 was measured by immunoblotting.
# Target sequence in this assay (P06493 whole entry, one chain of several): as the sequence (P06493 whole entry, the tested form may be a part) above
Molecule,inhibition of histone H1 kinase activity of purified Cdc2/Cyclin B1 complex [2],binding to Cdc2/Cyclin B1 in ELISA [3],Cdc2 level remaining in Cyclin B1 immune complexes (dissociation of complex) [6],further results
"GST: glutathione-S-transferase alone, linked to Sepharose beads, control [reference compound]",,,,association with cellular Cdc2 [1]: no Cdc2 was detected
B1,failed to inhibit,No appreciable binding,,
B2,strongly inhibited,significant binding over background level,did reduce the Cdc2 level,"inhibition of enzymatic activity of isolated (immunoprecipitated) Cdc2/cyclin B1 complex [4]: progressive inhibition; Cdc2/Cyclin B1 histone kinase activity, % of control ([2]; 50 ng protein): less than 40%; inhibition of histone phosphorylation by Cdc2/Cyclin B1 ([2]; larger amounts than 50 ng): strong inhibition; effect on Cdk2/Cyclin E histone H1 kinase activity [5]: no effect"
B3,able to inhibit,significant binding over background level,,binding relative to full-length rGADD45 protein [3]: 77%
B4,no appreciable effect,,no effect,
